Test results from patent US20260242478A1 (published 2026).
Where no end group is shown, it is not given here.

B1: Phage-3350 (Peptide-180 library peptide) (peptide)
peptide: GDIRCVPEWMCSGL
modifications: cysteine pairing not given here; also: fused to pIII of bacteriophage
notes: tested as crude clonal phage supernatant
B2: Phage-3351 (Peptide-180 library peptide) (peptide)
peptide: VRPMCEPVWMCMGF
notes: as for B1
B3: Phage-3352 (Peptide-180 library peptide) (peptide)
peptide: VDHVCRPIWMCIGF
notes: as for B1
B4: Phage-3353 (Peptide-180 library peptide) (peptide)
peptide: SEHFCRPAWMCTGF
notes: as for B1
B5: Phage-3354 (Peptide-180 library peptide) (peptide)
peptide: GQMYCKPSWMCNGF
notes: as for B1
B6: Phage-3355 (Peptide-180 library peptide) (peptide)
peptide: IGLLCAPKWMCEGF
modifications: cysteine pairing not given here; also: fused to pIII of bacteriophage
notes: as for B1
B7: Phage-3336 (peptide)
peptide: IVDICKPSWMCEGF
modifications: cysteine pairing not given here; also: fused to pIII of bacteriophage
notes: not shown: fused to pIII of the bacteriophage
B8: Phage-3337 (peptide)
peptide: LEVLCKPTWMCVGF
modifications: cysteine pairing not given here; also: fused to pIII of bacteriophage
notes: as for B7
B9: Phage-3338 (peptide)
peptide: VDALCRPSWMCIGF
modifications: cysteine pairing not given here; also: fused to pIII of bacteriophage
notes: as for B7
B10: Phage-3339 (peptide)
peptide: TASMCKPPWMCLGF
modifications: cysteine pairing not given here; also: fused to pIII of bacteriophage
notes: as for B7
B11: Phage-3340 (peptide)
peptide: MHFHCKPAWMCQGL
modifications: cysteine pairing not given here; also: fused to pIII of bacteriophage
notes: as for B7
B12: Phage-3341 (peptide)
peptide: QYPVCKPAWMCEGF
modifications: cysteine pairing not given here; also: fused to pIII of bacteriophage
notes: as for B7
B13: Phage-3342 (peptide)
peptide: MEPVCKPKWMCQGF
modifications: cysteine pairing not given here; also: fused to pIII of bacteriophage
notes: as for B7
B14: Phage-3343 (peptide)
peptide: TAPMCKPEWMCVAL
modifications: cysteine pairing not given here; also: fused to pIII of bacteriophage
notes: as for B7
B15: Phage-3344 (peptide)
peptide: MERLCMPSWMCGGF
modifications: cysteine pairing not given here; also: fused to pIII of bacteriophage
notes: as for B7
B16: Phage-3345 (peptide)
peptide: GELKCIPPWMCEGF
modifications: cysteine pairing not given here; also: fused to pIII of bacteriophage
notes: as for B7
B17: Phage-3346 (peptide)
peptide: SEYRCVPNWMCSGF
modifications: cysteine pairing not given here; also: fused to pIII of bacteriophage
notes: as for B7
B18: Phage-3347 (peptide)
peptide: QSPMCKPDWMCLGF
modifications: cysteine pairing not given here; also: fused to pIII of bacteriophage
notes: as for B7
B19: Phage-3348 (peptide)
peptide: YEQRCVPVWMCEGF
notes: as for B7
B20: Phage-3349 (peptide)
peptide: HIKECTPRWMCVGF
modifications: cysteine pairing not given here; also: fused to pIII of bacteriophage
notes: as for B7

These binders were tested against T1, PSMA Fab (biotinylated (site not stated)) (assay: clonal phage ELISA on biotinylated PSMA Fab captured on neutravidin plates, blocking buffer alone; anti-M13 HRP detection).
T1 construct: Biotinylated PSMA Fab captured on neutravidin coated plates in the phage ELISA; also called Anti-PSMA Fab; 006 PSMA Fab

Binder	phage binding ELISA signal
IMPKCVPSWMCTGL [Phage-3322]	1.85
AGSMCTPMWMCTGF [Phage-3323]	1.85
VGPRCVPEWMCIGL [Phage-3324]	1.85
MYIHCVPEWMCRGF [Phage-3325]	1.85
QVVMCTPEWMCSGF [Phage-3326]	1.85
IGVVCKPLWMCHGF [Phage-3327]	1.85
VAPICRPSWMCEWL [Phage-3328]	1.84
VDRLCSPAWMCLGF [Phage-3329]	1.84
MEAMCRPAWMCAGF (cysteine pairing not given here; also: fused to pIII of bacteriophage) [Phage-3330]	1.84
VNELCIPSWMCNGF [Phage-3331]	1.84
PELWCVPSWMCEGF [Phage-3332]	1.84
IEFLCKPMWMCNGF [Phage-3333]	1.84
IDRMCKPVWMCEGF [Phage-3334]	1.84
EGRYCVPEWMCQGF [Phage-3335]	1.84

Each binder was assayed against T2, PSMA Fab (assay: clonal phage ELISA on biotinylated PSMA Fab captured on neutravidin, anti-M13 HRP detection, blocking buffer alone).
T2 construct: In the panning ELISA the PSMA Fab was biotinylated and captured on neutravidin coated plates; also called Anti-PSMA Fab; 006 PSMA Fab
Method: (§1) Clonal phage were harvested as crude supernatants and screened via standard ELISAs. […] Prior to the addition of clonal phage. wells were incubated with blocking buffer and PSMA antigen or blocking buffer alone. Without washing or aspirating, clonal phage supernatants were then added to the wells and incubated for a short time. Wells were then washed followed by detection of bound phage using a horse radish conjugated anti-M13 antibody.

Binder	Phage binding ELISA signal, Anti-PSMA Fab
LPIMCKPQWMCNGF [Phage-3318]	1.86
LQVMCVPRWMCEGF [Phage-3319]	1.86
VGHVCIPSWMCDGM [Phage-3320]	1.86
WVIKCVPSWMCAGL [Phage-3321]	1.85

Each binder was assayed against T3, PSMA Fab (006 PSMA Fab) (assay: phage ELISA: clonal phage supernatant on biotinylated PSMA Fab captured on neutravidin plate, wells pre-incubated with PSMA antigen as competitor; anti-M13 HRP detection).
T3 construct: also called Anti-PSMA Fab
Method: as §1

Binder	phage binding ELISA signal
B1	0.0749
B2	0.0972
B3	0.0934
B4	0.0801
B5	0.0788
B6	0.0676

What follows are binders tested against T4, PSMA Fab (006 PSMA Fab) (biotinylated (site not stated)) (assay: clonal phage ELISA on biotinylated PSMA Fab captured on neutravidin, anti-M13-HRP detection;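 note: crude clonal phage supernatants added to wells preincubated with PSMA antigen in blocking buffer or with blocking buffer alone, brief binding period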).
T4 construct: also called Anti-PSMA Fab; anti-PSMA Fab

Binder	Phage binding ELISA signal, Anti-PSMA Fab
B7	1.84
B8	1.84
B9	1.84
B10	1.83
B11	1.83
B12	1.83
B13	1.83
B14	1.83
B15	1.83
B16	1.83
B17	1.83
B18	1.83
B19	1.82
B20	1.82

What follows are binders tested against T2, PSMA Fab (assay: clonal phage ELISA on biotinylated PSMA Fab captured on neutravidin, anti-M13 HRP detection, wells pre-incubated with saturating PSMA antigen as competitor).
Method: as §1

Binder	Phage binding ELISA signal, Anti-PSMA Fab with PSMA antigen
LPIMCKPQWMCNGF [Phage-3318]	0.08
LQVMCVPRWMCEGF [Phage-3319]	0.104
VGHVCIPSWMCDGM [Phage-3320]	0.0683
WVIKCVPSWMCAGL [Phage-3321]	0.0907

Each binder was assayed against T3, PSMA Fab (006 PSMA Fab) (assay: phage ELISA: clonal phage supernatant on biotinylated PSMA Fab captured on neutravidin plate, blocking buffer alone; anti-M13 HRP detection;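 note: crude clonal phage supernatants added to wells preincubated with blocking buffer, incubated briefly, bound phage detected with a horseradish-conjugated anti-M13 antibody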).
Method: as §1

Binder	phage binding ELISA signal
B1	1.82
B2	1.82
B3	1.82
B4	1.82
B5	1.82
B6	1.82

What follows are binders tested against T1, PSMA Fab (assay: clonal phage ELISA on captured PSMA Fab, wells pre-incubated with PSMA antigen as competitor; anti-M13 HRP detection).
Method: as §1

Binder	phage binding ELISA signal
IMPKCVPSWMCTGL [Phage-3322]	0.153
AGSMCTPMWMCTGF [Phage-3323]	0.0744
VGPRCVPEWMCIGL [Phage-3324]	0.0954
MYIHCVPEWMCRGF [Phage-3325]	0.0941
QVVMCTPEWMCSGF [Phage-3326]	0.0905
IGVVCKPLWMCHGF [Phage-3327]	0.0971
VAPICRPSWMCEWL [Phage-3328]	0.0837
VDRLCSPAWMCLGF [Phage-3329]	0.0785
MEAMCRPAWMCAGF (cysteine pairing not given here; also: fused to pIII of bacteriophage) [Phage-3330]	0.0662
VNELCIPSWMCNGF [Phage-3331]	0.0845
PELWCVPSWMCEGF [Phage-3332]	0.0867
IEFLCKPMWMCNGF [Phage-3333]	0.0658
IDRMCKPVWMCEGF [Phage-3334]	0.123
EGRYCVPEWMCQGF [Phage-3335]	0.0864

The binders below were run against T4, PSMA Fab (006 PSMA Fab) (assay: clonal phage ELISA on captured PSMA Fab, wells pre-incubated with PSMA antigen as competitor).
Method: as §1

Binder	phage binding ELISA signal (Anti-PSMA Fab with PSMA)
B7	0.0649
B8	0.078
B9	0.0688
B10	0.0684
B11	0.0998
B12	0.0971
B13	0.07
B14	0.0952
B15	0.0822
B16	0.0808
B17	0.0791
B18	0.0728
B19	0.0675
B20	0.078
